Changes are numbered by the printed parent chain. In names and notes the source's numbering stands. Blank lines part the entries; values can stand above or below the binder they belong to.
Assays:
Conditions in all cases: both partners purified
[1] = target: T1, biotinylated HLA-DM ectodomain (human, UniProt P28067 27-233; P28068 19-218, biotin on the C-terminal avitag (BirA); which chain carries the avitag is not stated); experiment: SPR; BIAcore, 25 C, pH 6.3 (running buffer pH 6.26); biotinylated DM on a streptavidin chip, untreated DOv injected; 80 mM citrate-phosphate, 150 mM NaCl, 0.06% BSA, 0.05% P20; apparent KD from fitted equilibrium RU
T1 construct: HLA-DM alpha chain, human, ectodomain; HLA-DM beta chain, human, ectodomain; Alpha/beta heterodimer; The supplement says only that avitag and flag-tag stand at a C-terminus; they are written on the beta chain for want of a statement; A KT3-tag at the C-terminus of recombinant DM beta is named in the western blot methods (D1:p7); also called bio-DM; sDM-Avi
T1 sequence (P28067 27-233, chain 1 of 2): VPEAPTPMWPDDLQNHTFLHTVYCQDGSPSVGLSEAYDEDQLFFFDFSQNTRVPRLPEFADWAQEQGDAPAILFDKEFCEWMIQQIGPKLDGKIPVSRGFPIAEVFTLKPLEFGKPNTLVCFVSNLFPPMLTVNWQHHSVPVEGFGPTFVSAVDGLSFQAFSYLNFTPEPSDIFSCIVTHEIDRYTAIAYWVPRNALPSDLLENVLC
T1 sequence (P28068 19-218, chain 2 of 2): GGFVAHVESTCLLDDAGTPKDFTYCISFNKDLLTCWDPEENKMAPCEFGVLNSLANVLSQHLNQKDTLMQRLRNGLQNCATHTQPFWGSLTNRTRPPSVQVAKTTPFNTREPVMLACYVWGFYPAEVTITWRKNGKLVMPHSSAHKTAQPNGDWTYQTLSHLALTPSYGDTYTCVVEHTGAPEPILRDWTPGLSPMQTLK

[2] = target: T1, biotinylated HLA-DM ectodomain; experiment: SPR; BIAcore, 25 C, pH 5.5 (running buffer pH 5.49); biotinylated DM on a streptavidin chip, DOv injected; 80 mM citrate-phosphate, 150 mM NaCl, 0.06% BSA, 0.05% P20; apparent KD from fitted equilibrium RU
[3] = target: T1, biotinylated HLA-DM ectodomain; experiment: SPR; BIAcore, 25 C, pH 7.2 (running buffer pH 7.16); biotinylated DM (120-130 RU) on a streptavidin chip, DOv injected; 80 mM citrate-phosphate, 150 mM NaCl, 0.06% BSA, 0.05% P20; apparent KD from fitted equilibrium RU (slow dissociation model)
[4] = target: T1, biotinylated HLA-DM ectodomain; experiment: SPR; BIAcore, 25 C, pH 6.3; biotinylated DM on a streptavidin chip; analyte: intact DOv SEC-purified after a pH 4.6 pulse (37 C, 8 min); apparent KD from fitted equilibrium RU
[5] = target: T1, biotinylated HLA-DM ectodomain; experiment: SPR; BIAcore, 25 C, pH 4.85; biotinylated DM on a streptavidin chip, DOv injected; 80 mM citrate-phosphate, 150 mM NaCl, 0.06% BSA, 0.05% P20; apparent KD from fitted equilibrium RU
[6] = target: T1, biotinylated HLA-DM ectodomain; experiment: SPR; BIAcore, 37 C, pH 4.85; biotinylated DM on a streptavidin chip, DOv injected; 80 mM citrate-phosphate, 150 mM NaCl, 0.06% BSA, 0.05% P20; apparent KD from fitted equilibrium RU
[7] = target: T1, biotinylated HLA-DM ectodomain; experiment: SPR; BIAcore, 37 C, pH 6.3; biotinylated DM on a streptavidin chip, DOv injected; 80 mM citrate-phosphate, 150 mM NaCl, 0.06% BSA, 0.05% P20; apparent KD from fitted equilibrium RU
[8] = target: T2, soluble HLA-DM ectodomain (human, UniProt P28067 27-233; P28068 19-218); experiment: BLI; Octet QK, 25 C as the table's head says, table row pH 7.2 (kinetic buffer 50 mM HEPES pH 7.4, 150 mM NaCl, 0.01% BSA, 0.002% Tween 20); biotinylated DOv on streptavidin biosensors, soluble DM 6.25-1600 nM; apparent KD from fitted equilibrium wavelength shifts
T2 construct: HLA-DM alpha chain, human, ectodomain; HLA-DM beta chain, human, ectodomain; The analyte of the BLI experiments, not biotinylated; also called sDM; soluble DM
T2 sequence (P28067 27-233, chain 1 of 2): as the sequence (P28067 27-233, chain 1 of 2) above
T2 sequence (P28068 19-218, chain 2 of 2): as the sequence (P28068 19-218, chain 2 of 2) above

[9] = target: T2, soluble HLA-DM ectodomain; experiment: BLI; Octet QK, 25 C as the table's head says, pH 6.3 (50 mM MES, 150 mM NaCl, 0.01% BSA, 0.002% Tween 20); biotinylated DOv on streptavidin biosensors, soluble DM 6.25-1600 nM; apparent KD from fitted equilibrium wavelength shifts
[10] = target: T2, soluble HLA-DM ectodomain; experiment: BLI; Octet QK, 25 C as the table's head says, pH 5.5 (50 mM citrate, 150 mM NaCl, 0.01% BSA, 0.002% Tween 20); biotinylated DOv on streptavidin biosensors, soluble DM 6.25-1600 nM; apparent KD from fitted equilibrium wavelength shifts
[11] = target: T2, soluble HLA-DM ectodomain; experiment: BLI; Octet QK, 25 C as the table's head says, table row pH 4.85 (kinetic buffer 50 mM acetate pH 4.7, 150 mM NaCl, 0.01% BSA, 0.002% Tween 20); biotinylated DOv on streptavidin biosensors, soluble DM 6.25-1600 nM; apparent KD from fitted equilibrium wavelength shifts
[12] = target: T3, biotinylated DM (soluble HLA-DM, SPR ligand) (human, UniProt P28067 27-233; P28068 19-218, biotin (chain and site not stated) | biotin (chain and site not stated)); experiment: SPR; BIAcore; 120–130 RU biotinylated DM on a streptavidin chip, DOv injected (Kinject, 30 μl/min, 5 min); 80 mM citrate-phosphate, 150 mM NaCl, 0.06% BSA, 0.05% P20, pH 4.85, 5.49, 6.26, 7.16; 25 °C or 37 °C; single cycle mode at pH 4.85 with >4 h dissociation; apparent constants (slow dissociation model)
T3 construct: HLA-DM alpha chain, ectodomain; HLA-DM beta chain, ectodomain; captured on a streptavidin chip; also called immobilized DM; source: recombinant, purified
T3 sequence (P28067 27-233, chain 1 of 2): as the sequence (P28067 27-233, chain 1 of 2) above
T3 sequence (P28068 19-218, chain 2 of 2): as the sequence (P28068 19-218, chain 2 of 2) above

[13] = target: T4, HLA-DM ectodomain of the DM-DOwt complex (human, UniProt P28067 27-233; P28068 19-218); experiment: SEC; DM-DOwt ectodomains incubated at pH 4.6, 5.4 or 6.3 for the indicated times (4 h, 24 h) or not treated, separated by size exclusion chromatography; fractions western blotted with DO- or DM-specific antibodies
T4 construct: HLA-DM alpha chain, ectodomain; HLA-DM beta chain, ectodomain; For BLI the DM-DOwt complex was biotinylated; also called DM (in DM-DOwt); DM-DO ectodomains; source: recombinant, purified in complex with DOwt (double SEC-purified DM-DO ectodomains)
T4 sequence (P28067 27-233, chain 1 of 2): as the sequence (P28067 27-233, chain 1 of 2) above
T4 sequence (P28068 19-218, chain 2 of 2): as the sequence (P28068 19-218, chain 2 of 2) above

- Kd [1]: 14.1 nM
- Kd [2]: 21.9 nM
- Kd [3]: 9.4 nM
- Kd [4]: 27.5 nM
- Kd [5]: 148 nM
- Kd [6]: 240 nM
- Kd [7]: 12.6 nM
B1: stabilized HLA-DO variant ectodomain (alpha P11A) (domain or fragment, human)
MHC II alpha: TKADHMGSYGAAFYQSYGASGQFTHEFDEEQLFSVDLKKSEAVWRLPEFGDFARFDPQGGLAGIAAIKAHLDILVERSNRSRAINVPPRVTVLPKSRVELGQPNILICIVDNIFPPVINITWLRNGQTVTEGVAQTSFYSQPDHLFRKFHYLPFVPSAEDVYDCQVEHWGLDAPLLRHWELQVPIPPPDAME
MHC II beta: TDSPEDFVIQAKADCYFTNGTEKVQFVVRFIFNLEEYVRFDSDVGMFVALTKLGQPDAEQWNSRLDLLERSRQAVDGVCRHNYRLGAPFTVGRKVQPEVTVYPERTPLLHQHNLLHCSVTGFYPGDIKIKWFLNGQEERAGVMSTGPIRNGDWTFQTVVMLEMTPELGHVYTCLVDHSSLLSPVSVEWRAQSEYSWRK
notes: HLA-DO alpha chain, human, ectodomain; HLA-DO beta chain, human, ectodomain; Alpha/beta heterodimer, not biotinylated when used as SPR analyte; The avitag is said to stand at the C-terminus of recombinant DO beta (D1:p7); The 'sz' of the cell line's name may mean leucine zippers; In one experiment the intact fraction after a pH 4.6 pulse (37 C, 8 min, SEC 12-13 ml) was used; also called szDOv-Avi

- Kd [8]: 11.3 nM
- Kd [9]: 17 nM
- Kd [10]: 26.9 nM
- Kd [11]: 233 nM
B2: biotinylated stabilized HLA-DO variant ectodomain (alpha P11A) (domain or fragment, human)
MHC II alpha: B1 MHC II alpha
MHC II beta: B1 MHC II beta
modifications: biotin on the C-terminal avitag (BirA)
notes: HLA-DO alpha chain, human, ectodomain; HLA-DO beta chain, human, ectodomain; Same construct as Dm2, biotinylated and held on streptavidin biosensors in BLI; also called bio-DOv; biotinylated DOv

- fold increase of KD,app from pH 7.2 to pH 4.7 [12]: > 10 fold
B3: stabilized HLA-DO variant (DOv), ectodomain with αP11A (complex, human)
MHC II alpha: B1 MHC II alpha
MHC II beta: B1 MHC II beta
notes: HLA-DO alpha chain, ectodomain; HLA-DO beta chain, ectodomain; Also used after pH 4.6 pulses and SEC isolation of the intact portion (assay a3); also called soluble DOv; source: recombinant, expressed and purified alone

- binding result [13]: binds
B4: wild type HLA-DO ectodomain (DOwt) of the DM-DOwt complex (complex, human)
MHC II alpha: B1 MHC II alpha with A11P
MHC II beta: B1 MHC II beta
notes: HLA-DO alpha chain, ectodomain; HLA-DO beta chain, ectodomain; For BLI the DM-DOwt complex was biotinylated; also called wild type DO; source: recombinant, purified in complex with DM (double SEC-purified DM-DO ectodomains)

Source: article PMC4661524 (Scientific Reports, 2015)
